Experimental data: patent CN115057938A (dated 2022)

B1: R1463 (VHH)
VHH: QVQLVESGGGVVQPGGSLRLSCTCSRCTFNWDGMGWFRQAPGKGLEFVATISWSGQEPAYADSVKGRFTISRDNSKNTLYLQMTSLRAEDTAVYYCAAAQYTGASYSILRDQVGYDYWGQGTLVTVSS
notes: also called RX017 VHH-His标签; 对照
B2: R1464 (VHH, not shown: small tags and cut ends)
chain (part 1 of 3): HHHHHHQVQLVESGGGVVQPGGSLRLSCTCSRCTFNWDGMGWFRQAPGKGLEFVATISWSGQEPAYADSVKGRFTISRDNSKNTLYLQMTSLRAEDTAVYYCAAAQYTGASYSILRDQVGYDYWGQGTLVTVSS
chain (part 2 of 3): B1 VHH
chain (part 3 of 3): B1 VHH
notes: also called 人源化多价结合蛋白 R1464; His标签-VHH-Linker-VHH-Linker-VHH
B3: R1475 (VHH, not shown: small tags and cut ends)
VHH 1: B1 VHH
VHH 2: B1 VHH
notes: also called 人源化多价结合蛋白 R1475; VHH-Linker-VHH-His标签

Molecular target: 野生株SARS-COV-2 RBD蛋白(Ag27) (SARS-COV-2 野生株, UniProt P0DTC2 319-541)

Binder	IC50 [nM]
B1	0.0359
B2	0.0272
B3	0.0206
